Data taken from PMC3394720.

Biological target: MCMV nuclear capsids (murine cytomegalovirus (MCMV) | murine cytomegalovirus (MCMV), Smith strain)
Assay: immunoelectron microscopy of purified nuclear capsids; nuclear capsids purified on a sucrose gradient from infected cells, adsorbed on grids, rabbit GFP antiserum and protein A-gold (10 nm); gold beads per capsid counted; WT capsids as background

S-GFP-SCP fusion protein expressed ectopically from recombinant MCMV
gold beads per capsid (anti-GFP immunogold) (gold beads per capsid): 15
